Reference: patent US7148202

Target: FGF receptor on COS cells
Test: cell-based or functional assay

Substance	phagemid particle-dependent transfection of COS-1 cells (fold molar excess)	transduction efficiency (GFP positive autofluorescent COS cells) against control phage MEGFP3
free FGF2 (non-biotinylated) (from UniProt P09038 2-155) (ligand)	100	
FGF2 display phage MF2/1G3 (FGF2-pIII fusion on M13 type 3 phage) (from UniProt P09038 2-155; P69168 19-424)		10 fold
